Experimental findings from the nanobody polyreactivity screen of Harvey et al. (2022) are described below.

The series can be described thus: yeast display, Sf9 membrane polyspecificity reagent, FACS + sequencing; frameworks hold sequencing errors. In a few lines:
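Using colony PCR, genes from sorted yeast display clones were amplified, then sequenced on MiSeq at 2 × 250 and filtered by CDR length. The clones had been stained with 10% biotinylated, detergent-solubilized Sf9 membrane reagent for 1 hour at 4 °C and sorted by FACS into low and high (top ~1%) gates on anti-HA and streptavidin fluorescence. Polyreactivity labels come from the gate of origin.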
For the sequence “QVQLVESGGGLVQAGGSLRLSCAASGGILPKYAMGWYRQAPGKERELVAAIDGGGDSTYYADSVKGRFTISRDNAKNTVYLQMNSLKPEDTAVFYCAAYQWTGYYLEYDYWGQGTQVTVSS”, the “polyreactivity (PSR sort gate)” value is “low polyreactivity”.
As for “QVQLVESGGGLVQAGGSLRLSCAASGFTFHWYAMGWYRQAPGKERELVAAISWSGGSTYYADSVKGRFTISRDNAKNTVYLQMNSLKPEYTAVYYCNAGVYWPGEFDYWGQGTQVTVSS”, the entry is “high polyreactivity”.
As to “QVQLVESGGGLVQAGGSLRISCAASGRIFPVNAMGWYRQAPGKERELVARISWRGGTYYADSVKGRFTISRDNAKNTVYLQMNSLKPEDTAFYYCAATLASTSYWYHYGYWGQGTQVTVSS”, the “polyreactivity (PSR sort gate)” value is given as “high polyreactivity”.
On to “QVQLVESGGGLVQAGGSLRLSCAASGRTFYYYVMGWYRQAPGKERELVAAITKSTGSTYYADSVKGRFTISRDNAKNTVYLQMNSLKPEDTAVYYCAAAYWITTPYDYWGQGTQVTVSS”, for which the “polyreactivity (PSR sort gate)” value is on record as “low polyreactivity”.
Consider “QVHLVESGGGLVQAGGSLRLSCAASGSTLSFYARGWYRQAPGKERELVAAISSSGGSTYYADSVKGRFTISRDNAKNTVYLQMNSLKPEDTAVYYCNAVRRNYGYDYWGQGTQVTVSS”, for which the “polyreactivity (PSR sort gate)” value was “high polyreactivity”.
For “QVQLVESGGGLVQAGGSLRLSCAASGRIFLRNTMGWYRQAPGTERELVAAITGRGGSTYYADSVKGRFTISRDNAKNTVYLQMNSLIPEDTAVYYCAARSPGYSPPGPVRLSDYWGQGTQVTVSS” the value was “high polyreactivity”; for “QVKLVESGGGLVQAGGSIRLSCAASGRIFTTYTMGWYRQAPGKERELVAAITRGDRTNYADSVKGRFTISRDNAKNTVYLQMNSLIPEDTAVYYCAAVGNWYYRDPLHSRFYYWGQGTQVTVSS”, “high polyreactivity”.
As for “QVQLVESGGGLVQAGGSLRLSCAASGGTLQGNAMGWYRQAPGKERELVAAISSRGGRTYYADSVKGRFTISRDNAKNTVYLQMNSLKPEDTAVYYCAAVQNGDSTLLRTKGGYWGQGTQVTVSS”, the entry is “high polyreactivity”; as for “QVQLVESGGGLVQAGGSLRLSCAASGSIFAYYAMGWYRQPPGKERELVAAISYSVDGTYYADSVKGRFTISRDNAYNTVYLQMNSLKPEDTAVYYCATQIYPLDFYQGDWNDYWGQGTQVTVSS”, “low polyreactivity”; as for “QVQLVESGGGLLQAGGSLLLSCAASGITFYDNAMGWYRQAPGKERELVAGISYDGDSTYADSVKGRFTISRDNAKNTVYLQMNSLKPEDTAVYYCAALGPYEWLWAGDYWGQGTQVTVSS”, “low polyreactivity”.
As for “QVQLVESGGGLVQAGGSIRLSCAASGSTFYSYAMGWYRQATGKERELVAAISSGGSTNYADSVKGRFTISRDNAKNTVYLQMNSLKPEDTAVYYCAVDYPVIVYQRGYWGQGTQVTVSS”, the “polyreactivity (PSR sort gate)” value is “low polyreactivity”.
In the case of “QVQLQESGGVQAGGSLRLSCAASGYISRSDVKGWYRQAPGKERELVATINNGTITYYADSVKGRFTISRDNAKNTVYLQMNSLKPEDTAVHYCAVVQSDTDSLYYWGQGTQVTVSS”, the “polyreactivity (PSR sort gate)” value is listed as “low polyreactivity”.
For “QVQLVESGGGLVQAGGSLRLSCAASGSTFSYYAMGWYRQAPGKERELVAAITRSGGRTYYADSVKGRFTISRDNAKNTVYLQMNSLKPEDTAVYYCAALSVGTRRDYWGQGTQVTVSS” the value was “low polyreactivity”; for “QVQRVESGGGLVQAGGSLRLSCAASGSIFPSNTMGWYRQAPGKERELVAAISGSGTRTYYADSVKGRFTISRDNAKNTVYLQMNSLKPEDTAVYYCAADVDYWGQGTQVTVSS”, “low polyreactivity”.
With “QVQLVESVGGLVQAGGSLRLSCAASGRIFAVYAMGWYRQAPGKEREFVAAISYSGGITYYADSVKGRFTISRDNAKNTVYLQMNSLKPEDTAVYYCNAYYYFWGQGTQVTVSS”, the “polyreactivity (PSR sort gate)” value is listed as “low polyreactivity”.
For the sequence “QVQLVESGGGLVQAGGSLRLSCAASGSIFRYYAMGWYRRAPGKERELVAAISRRGSSTYYADSVKGRFTISRDNAKNTVYLQMNSLKPEDTAVYYCAAGDFKQYDYWGQGTQVTVSS”, the “polyreactivity (PSR sort gate)” value is recorded as “high polyreactivity”.
As to “QVQLVESGGGLVQAGGSLRLSCADSGRTFCKYVMRWYRQAPGKERELVAVISRPAGSTYYADSVKGRFTISRDNAKNTVYLQMNSLKPEDTAVYYCAKRPKNKPVLGDYDHWGQGTQVTVSS”, the “polyreactivity (PSR sort gate)” value is given as “low polyreactivity”.
As for “QVQLVESGGGLVQAGGSLRLSCAASGLIFYLYAMGWYRQAPGKEMELVAAISSGGSTYYADSVKGRFTISRDNAKNTVYLQMISLKPEDTAVYYCNARYYYVSGLQAYYYWGQGTQVTVSS”, the entry is “high polyreactivity”; as for “QDQLVESGGGLVQAGGSLRLSCSASGRTFHRNAMGWYRQAPGKERESVAAITGDGRTNYADSVKGRFTISRDNAKNTVYLQMNSLKPEDNAVYYCAARFSYRSYDYWGQGTQVTVSS”, “low polyreactivity”; as for “QVQLVESGGGLVQAGGSLRLSCAASGLTFGYYAMGWYRQAPGKVRELVAAISRGSSTYYADSVKGRFTISRDNAKNTVYLQMNSLIPEDTAVYYCNALFSYGYWRVRYIVTQYDYWGQGTQVTVSS”, “high polyreactivity”.
For “QVQLQESGGGLVQAGGSLRLSCAASGSISSRDAMGWYRQAPGKEREFVATIASGTTTYYADSVKGSFTISRDNAENTVYLQTNSLKPEDTAVYYCAAPTIQIYPFYYWGQGTQVTVSC” the value was “high polyreactivity”; for “QVQLVESGGGLVQAGGSLRLSCAASGRTIWRYGMGWYRQAPGKERELVAAITDSGDSTYYADSVKGRFTISRDNAKNTVYLQMNSLKPEDTAVYYCAASDVVFALNGYYPGEDDYWGQGTQVTVSS”, “low polyreactivity”; for “QVQLVESGGGLVQAGGSLLLSCAASGSTFGSYDMGWYRQAPGKERELVATISTSGSGTYYADSVKGRFTISRDNSKNTVYLQMNSLKPEDTAFYDCAKDPADGRRFRYGYWGQGTQVTVSS”, “low polyreactivity”.
For “QVQLLESVGGLVQAGGRLRLTCDATGSIFRYYAMGWYRQEPGKERELVATISSGGRTYYADSVKGRFTISRDNAKNTVYLQMNSLKPEDTAVYYCAKVGWSRRYYYWGQGTQVTVSS” the value was “high polyreactivity”.
For “QVQLVESGGGLVQAGASLRLSCAPSGLIFTYNARGWYRQAPGKERELVAAITYRVSSTYYADSVKGRFTISRDNAKNSVYLQMNSLKPEDTAVYYCAAPRLIRFVTYYSWGLGTQVTVSS”, the “polyreactivity (PSR sort gate)” value is listed as “high polyreactivity”.
As for “QVQLVESGGGLVQAGGRLRLSCAASGRTILSYAMGWYRQAPAKERELVAAITGSGGRKYYADSVKGRFTISRENAKNTVYLQMNSLKPEDTAVYYCATRWIKGRKMDYWGQGTQVTVSS”, the entry is “high polyreactivity”; as for “QVQLVESGGGLVQAGGSLRLSCAASGFIFRKYAMGWYRQAPGKERELVAAITASGGSTYYGDSVKGRFTISRDNAKNTVYLQLNSLKPEDTAVYYCATDFHGAERWLKYVYWGQGTQVTVSS”, “high polyreactivity”.
As for “QVQHVESGGGLVQAGGSLLLSSAASGRTFLVNAMGWNRQAPGKEREFVAAITSRSGRTNYADSVKGRFTISRDTAKNNVYLQMNSLKPEDTAVYYCNAEGYTVKYWYSRYDYWGQGTQVTVSS”, the “polyreactivity (PSR sort gate)” value was “high polyreactivity”.
Consider “QVQLVESGGGLVQAGGSLRLSCAASGFTFIKYAMGWYRQAPGKEREFVAAITRSGTSTYYADSVKGRFTISRDNAKNTVYLQMNSLKPEDTAVYYCAARYVYNSDRVSERDYWGQGTQVTVSS”, for which the “polyreactivity (PSR sort gate)” value is on record as “high polyreactivity”.
As for “QVQLVESGGGLVQAGGSLRLSCAASGRTFVGNTMGWYRQAPGKERELVAAISTGDGSTTYADSVKGRFTISRDNAKNTVYLQMNSLKPEDTAVYYCNVKYRASYRTDFEYWGLGTQVTVSS”, the “polyreactivity (PSR sort gate)” value was “low polyreactivity”.
In the case of “QVQLVESGGGLVQAGGSLRLSCAPSGSTINQYAMGWYRQAPGKESELVAAITRRGGSTYYADSVKGRFTISRDNAKNTVYLQMNSLKPEDTAVYYCAAAYPYTTVSYDYWGQGTQVTVSS”, the “polyreactivity (PSR sort gate)” value is “high polyreactivity”.
“QVQLVESGGGLVQAGGSLRLICAASGSTFGYYAMGWYRKAPGKERELVAVITYSGGSTYYADSVKGRFTISRDNAKNTVNLQMNSLKPEDTSVYYCSAVIGVWYYYTYDYWGQGTQVTVSS”: the “polyreactivity (PSR sort gate)” value is “low polyreactivity”.
With “QVQLVESGGGLVQAGGSLRLSCAASGSTFTGYVLGWYRQAPGKERELVAAITSSVDGTYYADSVKGRFTISRDIAKNTVYLQMNSLKPEDTAVYYCAADLWKGVYPSYDYWGQGTQVTVSS”, the “polyreactivity (PSR sort gate)” value is “low polyreactivity”.
With “QVQLVESGGGLVQAGGSLRLSCAASGRTLGPNPMGWYRPAPGKERELVAAITYNAGSTYYADSVKGRFTISRDNAKNTVYLQMNSLKPEDTAVYYCAARSTQKWTKYYYWGQGTQVTVSS”, the “polyreactivity (PSR sort gate)” value is reported as “high polyreactivity”.
For “QVQLVESGGGLVQAGGSLRLSCAASGRIFLYNGMGWYRQAPGKERELVAGITTGGNTNYADSVKGRFTISRDNAKNTVYLQMNSLKPEDTAVYYCAAEVIVYGWSPDYDYWGQGTQVTVSS”, the “polyreactivity (PSR sort gate)” value is reported as “low polyreactivity”.
On to “QVQLVESGGGLVQAGGSLRLSCAASGIIFKYYAMGWYRQAPGKERELVAAITRSGGSTYYADSVKGRFTISRDNAKNTVYLQMYSLKPEDTAVYYCAAQTGYSYGITWQFTKYNYWGQGTQVTVSS”, for which the “polyreactivity (PSR sort gate)” value is listed as “low polyreactivity”.
For “QVQLVESGGGLLQAGGSLRLIWAASGIIFVKNSMGWYRQAPGKERELVAAITVSGSRTYYADSVKGRFTISRDNAKNTVYLQMNSLKPEDTAVYYCNAYPYYRGRNMDSWGQGTQVTVSS” the value was “high polyreactivity”; for “QVQLVESGGGLVQAGGSLRLSCAASGFTFRRYAMGWYRQAPGKERELVAAISNGGSTYYADSVKGRFTISRDNAKNTVYLQMNSLKPEDTAVYYCAADIYSYFWWPYYYWGQGTQVTVSS”, “high polyreactivity”; for “QVQLVESGGGLVQAGGSLRLSCAASGLIFPPYAMGWYRQAPGKEREFVARISWSTSSTYYADSVKGRFTISRDNAKNTVYLQMNSLKPEDTAVYYCNARFDDWWGEFDYWGQGTQVTVSS”, “high polyreactivity”.
For “QVQLVESGGGIVQAGCSLRLSCAASGFTFERYTMGWYRQAPGKERELVATISRRSGRTSYADSVKGRFTISRDNAKNTVYLQMNSLNPEDTAVYYCAVDDAYPDRYDYWGQGTQVTVSS” the value was “high polyreactivity”; for “QVQLVESGGGLVQAGGSLRLSCAASGRTFTSNAMGWYRQAPGKERELVAAITQSGGSTYYADSVKGRFTISRDNAKNTVYLQMNSLKPEDTAVYYCNAETTGRTEYNYWGQGTQVTVSS”, “low polyreactivity”.
